Data on 51 substances can be found in patent publication US11779606B2, “Peptides and combination of peptides of non-canonical origin for use in immunotherapy against different types of cancers” (Immatics Biotechnologies GmbH, priority 2018, dated 2023).

The target of this experiment is HLA-A*02:01 (Homo sapiens, UniProt P04439, D140Y/D185E/D98H/E176V/E277Q/G131W/G231S/I119V/I121R/I166T/I218V/L300P/L318F/N151K/N90K/P208A/P217A/Q86G/Q94H/R138H/R169H/T345S). In words: MHC binding assay (UV-ligand exchange, β2m ELISA). The note with it: MHC class I binding score; peptide exchange yield, binding to HLA-A*02:01, UV-ligand exchange with β2m ELISA. An excerpt:
Candidate peptides for T cell based therapies according to the present invention were further tested for their MHC binding capacity (affinity).
The individual peptide-MHC complexes were produced by UV-ligand exchange, where a UV-sensitive peptide is cleaved upon UV-irradiation and exchanged with the peptide of interest as analyzed. Only peptide candidates that can effectively bind and stabilize the peptide-receptive MHC molecules prevent dissociation of the MHC complexes. To determine the yield of the exchange reaction, an ELISA was performed based on the detection of the light chain (β2m) of stabilized MHC complexes. The assay was performed as generally described in Rodenko et al. (Rodenko et al., 2006).
96 well MAXISorp plates (NUNC) were coated over night with 2 ug/ml streptavidin in PBS at room temperature, washed 4× and blocked for 1h at 37° C. in 2% BSA containing blocking buffer. Refolded HLA-A*02:01/MLA-001 monomers served as standards, covering the range of 15-500 ng/ml. Peptide-MHC monomers of the UV-exchange reaction were diluted 100 fold in blocking buffer. Samples were incubated for 1 h at 37° C., washed four times, incubated with 2 ug/ml HRP conjugated anti-β2m for 1h at 37° C., washed again and detected with TMB solution that is stopped with […]. Absorption was measured at 450 nm. Candidate peptides that show a high exchange yield (preferably higher than 50%, most preferred higher than 75%) are generally preferred for a generation and production of antibodies or fragments thereof, and/or T cell receptors or fragments thereof, as they show sufficient avidity to the MHC molecules and prevent dissociation of the MHC complexes.

Turning to “34 (LLNVEPAGA; listed as Homo sapiens) [compound 34]”, the Peptide exchange result was “++++ (≥75% = ++++)”. The entry for “61 (VLPWQPLLL; listed as Homo sapiens) [compound 61]” is “++ (≥20% = ++)”; for “58 (MIISHRALEL; listed as Homo sapiens) [compound 58]” it is “++ (≥20% = ++)”.

As to “69 (LLCPVVLQL; listed as Homo sapiens) [compound 69]”, the Peptide exchange result is listed as “++++ (≥75% = ++++)”. In the case of “55 (MVQQEKLFV; listed as Homo sapiens) [compound 55]”, the Peptide exchange entry is “+++ (≥50 = +++)”. With “100 (SLGPPPVGV; listed as Homo sapiens) [compound 100]” the entry was “++++ (≥75% = ++++)”; with “41 (LMASEGIWESSL; listed as Homo sapiens) [compound 41]”, “+++ (≥50 = +++)”; with “60 (LLLATLENL; listed as Homo sapiens) [compound 60]”, “++++ (≥75% = ++++)”.

Turning to “10 (SLLDKLSGI; listed as Homo sapiens) [compound 10]”, the Peptide exchange result was “++++ (≥75% = ++++)”.

As for “5 (LVWEVVESV; listed as Homo sapiens) [compound 5]”, the Peptide exchange result is recorded as “++++ (≥75% = ++++)”.

Consider “59 (LAASTTFLGV; listed as Homo sapiens) [compound 59]”, for which the Peptide exchange entry is reported as “++++ (≥75% = ++++)”. With “30 (LLRLTLLPL; listed as Homo sapiens) [compound 30]” the entry was “++ (≥20% = ++)”; with “52 (LAFVSHVLI; listed as Homo sapiens) [compound 52]”, “++ (≥20% = ++)”. With “53 (TISISLSSV; listed as Homo sapiens) [compound 53]” the entry was “++++ (≥75% = ++++)”. With “35 (VLLNSNYPV; listed as Homo sapiens) [compound 35]” the entry was “++++ (≥75% = ++++)”. With “62 (SLLGKPGLTI; listed as Homo sapiens) [compound 62]”, the Peptide exchange result is given as “++++ (≥75% = ++++)”.

With “11 (ALLPHAPEAV; listed as Homo sapiens) [compound 11]”, the Peptide exchange entry is given as “+++ (≥50 = +++)”. Take “56 (IITNLIVNI; listed as Homo sapiens) [compound 56]”: the Peptide exchange result is reported as “+++ (≥50 = +++)”. With “25 (ISVLNLSAI; listed as Homo sapiens) [compound 25]” the entry was “++ (≥20% = ++)”; with “24 (TLTSLNILL; listed as Homo sapiens) [compound 24]”, “++++ (≥75% = ++++)”; with “12 (HLDSMNVSI; listed as Homo sapiens) [compound 12]”, “++++ (≥75% = ++++)”.

Regarding “70 (LLLQIEPAA; listed as Homo sapiens) [compound 70]”, the Peptide exchange entry is “++++ (≥75% = ++++)”. With “57 (YVLMTSLLL; listed as Homo sapiens) [compound 57]” the entry was “++++ (≥75% = ++++)”. For the substance “54 (GLSPDQVFL; listed as Homo sapiens) [compound 54]”, the Peptide exchange result is recorded as “++++ (≥75% = ++++)”. On to “28 (SQLEKPETA; listed as Homo sapiens) [compound 28]”, for which the Peptide exchange result is “+++ (≥50 = +++)”. With “20 (VLISLPGKV; listed as Homo sapiens) [compound 20]” the entry was “++ (≥20% = ++)”; with “39 (YIYEDEVRL; listed as Homo sapiens) [compound 39]”, “++++ (≥75% = ++++)”. With “73 (STTIINLIL; listed as Homo sapiens) [compound 73]” the entry was “++ (≥20% = ++)”; with “8 (ILQSLVPAA; listed as Homo sapiens) [compound 8]”, “++++ (≥75% = ++++)”. For “42 (WITPVIPAL; listed as Homo sapiens) [compound 42]”, the Peptide exchange result was “++++ (≥75% = ++++)”. The entry for “32 (VLSVSAVLGA; listed as Homo sapiens) [compound 32]” is “+++ (≥50 = +++)”; for “97 (GLIDDKGTIKL; listed as Homo sapiens) [compound 97]” it is “++++ (≥75% = ++++)”; for “71 (WLMPVMPAL; listed as Homo sapiens) [compound 71]” it is “++++ (≥75% = ++++)”. The entry for “9 (FLQEGDLISV; listed as Homo sapiens) [compound 9]” is “++++ (≥75% = ++++)”. The entry for “27 (IAAGVPNTDA; listed as Homo sapiens) [compound 27]” is “++ (≥20% = ++)”; for “44 (WLIPRQLAAA; listed as Homo sapiens) [compound 44]” it is “++++ (≥75% = ++++)”; for “45 (ALYHQSPLL; listed as Homo sapiens) [compound 45]” it is “++++ (≥75% = ++++)”. Turning to “66 (ILNELLNSI; listed as Homo sapiens) [compound 66]”, the Peptide exchange result is “++++ (≥75% = ++++)”. The entry for “67 (ALKELMGPA; listed as Homo sapiens) [compound 67]” is “++ (≥20% = ++)”; for “17 (VLWDLRPSSLI; listed as Homo sapiens) [compound 17]” it is “++++ (≥75% = ++++)”; for “23 (GLEVLDALL; listed as Homo sapiens) [compound 23]” it is “++ (≥20% = ++)”. With “14 (LLIEVSEEL; listed as Homo sapiens) [compound 14]” the entry was “++++ (≥75% = ++++)”.

For the substance “22 (SLYDVPVGA; listed as Homo sapiens) [compound 22]”, the Peptide exchange result was “++++ (≥75% = ++++)”. The entry for “15 (NLVMPLLHI; listed as Homo sapiens) [compound 15]” is “++ (≥20% = ++)”; for “63 (LSFKRSLSI; listed as Homo sapiens) [compound 63]” it is “++ (≥20% = ++)”. With “99 (ALMDGSESRFFV; listed as Homo sapiens) [compound 99]” the entry was “++++ (≥75% = ++++)”. Take “16 (ALLDAEQSPVAL; listed as Homo sapiens) [compound 16]”: the Peptide exchange entry was “++++ (≥75% = ++++)”. The entry for “98 (SLMEVTHDL; listed as Homo sapiens) [compound 98]” is “++++ (≥75% = ++++)”. With “21 (FVFISPSFL; listed as Homo sapiens) [compound 21]” the entry was “+++ (≥50 = +++)”; with “64 (LLLALRLSL; listed as Homo sapiens) [compound 64]”, “+ (≥10% = +)”; with “43 (AIWSTILIA; listed as Homo sapiens) [compound 43]”, “++ (≥20% = ++)”.
